In the Immune Epitope Database (IEDB):

Assays:
HLA-A*02:01 [1] = assay: IEDB peptide-MHC binding, purified MHC/competitive/fluorescence; ≥ and ≤ were set here for values at or beyond the usual limits of such assays
HLA-A*24:02 = assay: as above
HLA-B*08:01 [2] = assay: as above
HLA-B*15:01 [3] = assay: as above; conditions: source organism: Zaire ebolavirus
HLA-A*02:01 [4] = assay: IEDB peptide-MHC binding, purified MHC/direct/fluorescence; filed as Kd, often an IC50 or EC50 that approximates it; ≥ and ≤ were set here for values at or beyond the usual limits of such assays
HLA-A*02:12 = assay: as above
HLA-A*02:16 = assay: as above
HLA-A*02:19 = assay: as above
HLA-A*03:01 = assay: as above
HLA-A*24:03 = assay: as above
HLA-A*29:02 = assay: as above; conditions: source organism: Burkholderia mallei ATCC 23344
HLA-B*18:01 = assay: as above
HLA-B*27:03 = assay: as above
HLA-B*57:01 = assay: as above
HLA-A*02:03 = assay: as above
HLA-A*02:11 = assay: as above
HLA-A*26:01 = assay: as above
HLA-B*07:02 [5] = assay: as above
HLA-B*15:01 [6] = assay: as above
HLA-B*35:01 [7] = assay: as above
HLA-B*39:01 = assay: as above
HLA-B*46:01 = assay: as above
HLA-B*51:01 = assay: as above; conditions: source organism: Vibrio vulnificus CMCP6
HLA-A*01:01 = assay: as above
HLA-A*11:01 = assay: as above
HLA-A*26:02 = assay: as above
HLA-A*26:03 = assay: as above
HLA-A*31:01 = assay: as above
HLA-A*68:02 = assay: as above
HLA-A*69:01 = assay: as above
HLA-B*08:02 = assay: as above
HLA-B*15:02 = assay: as above; conditions: source organism: Aracatuba virus
HLA-B*27:05 = assay: as above
HLA-B*48:01 = assay: as above
HLA-B*58:01 = assay: as above
HLA-B*15:17 [8] = assay: IEDB peptide-MHC binding, purified MHC/competitive/fluorescence; filed as Kd, often an IC50 or EC50 that approximates it; ≥ and ≤ were set here for values at or beyond the usual limits of such assays; conditions: source organism: Vaccinia virus
HLA-B*35:01 [9] = assay: as above; conditions: source organism: Vaccinia virus
HLA-B*15:17 [10] = assay: IEDB peptide-MHC binding, purified MHC/direct/fluorescence; filed as Kd, often an IC50 or EC50 that approximates it; ≥ and ≤ were set here for values at or beyond the usual limits of such assays
HLA-B*08:01 [11] = assay: as above; conditions: source organism: Vibrio cholerae V52
HLA-B*08:03 = assay: as above; conditions: source organism: Vibrio cholerae V52
HLA-B*15:09 = assay: as above; conditions: source organism: Vibrio cholerae V52
HLA-B*40:01 = assay: as above; conditions: source organism: Vibrio cholerae
HLA-B*44:02 = assay: as above; conditions: source organism: Vibrio cholerae
HLA-A*30:01 = assay: IEDB peptide-MHC binding, purified MHC/competitive/fluorescence; filed as Kd, often an IC50 or EC50 that approximates it; ≥ and ≤ were set here for values at or beyond the usual limits of such assays; conditions: source organism: Vibrio cholerae 2740-80
HLA-B*07:02 [12] = assay: IEDB peptide-MHC binding, purified MHC/competitive/fluorescence; ≥ and ≤ were set here for values at or beyond the usual limits of such assays; conditions: source organism: Zaire ebolavirus
[13] = source organism: Zaire ebolavirus
[14] = source organism: Burkholderia mallei ATCC 23344
[15] = source organism: Vibrio vulnificus CMCP6
[16] = source organism: Vaccinia virus Copenhagen
[17] = source organism: Aracatuba virus
[18] = source organism: Salmonella enterica subsp. enterica serovar Typhimurium
[19] = source organism: Vibrio cholerae
[20] = source organism: Vibrio cholerae V52

In the case of VMNHKNKFM, the IC50 (HLA-A*02:01 [1]; [13]) is reported as 3.51 µM, the IC50 (HLA-A*24:02; [13]) is reported as 2.14 µM and the IC50 (HLA-B*08:01 [2]; [13]) is reported as 8.29 µM. It also gave an IC50 (HLA-B*15:01 [3]) of 18 µM.

MSADNAGAL was tested, and the Kd (HLA-A*02:01 [4]; [14]) was no less than 20 µM, the Kd (HLA-A*02:12; [14]) was no less than 20 µM and the Kd (HLA-A*02:16; [14]) was no less than 20 µM. It also gave a Kd (HLA-A*02:19; [14]) of no less than 20 µM, a Kd (HLA-A*03:01; [14]) of no less than 20 µM and a Kd (HLA-A*24:03; [14]) of no less than 20 µM. It also gave a Kd (HLA-A*29:02) of no less than 20 µM, a Kd (HLA-B*18:01; [14]) of no less than 20 µM and a Kd (HLA-B*27:03; [14]) of no less than 20 µM. For the same sequence, the Kd (HLA-B*57:01; [14]) was no less than 20 µM.

For EMSLADYLY, the Kd (HLA-A*02:01 [4]; [15]) was no less than 20 µM, the Kd (HLA-A*02:03; [15]) was no less than 20 µM and the Kd (HLA-A*02:11; [15]) was no less than 20 µM. The Kd (HLA-A*02:12; [15]) was no less than 20 µM, the Kd (HLA-A*02:16; [15]) was no less than 20 µM and the Kd (HLA-A*02:19; [15]) was no less than 20 µM. It also gave a Kd (HLA-A*03:01; [15]) of no less than 20 µM, a Kd (HLA-A*24:03; [15]) of no less than 20 µM and a Kd (HLA-A*26:01; [15]) of no less than 20 µM. It also gave a Kd (HLA-B*07:02 [5]; [15]) of no less than 20 µM, a Kd (HLA-B*15:01 [6]; [15]) of 0.029 µM and a Kd (HLA-B*27:03; [15]) of no less than 20 µM. For the same sequence, the Kd (HLA-B*35:01 [7]; [15]) was 0.027 µM, the Kd (HLA-B*39:01; [15]) was no less than 20 µM and the Kd (HLA-B*46:01; [15]) was no less than 20 µM. The Kd (HLA-B*51:01) was no less than 20 µM and the Kd (HLA-B*57:01; [15]) was no less than 20 µM.

With YFLKIKVTA the IC50 (HLA-A*02:01 [1]; [16]) was 6.34 µM, the IC50 (HLA-A*24:02; [16]) was 3.76 µM and the IC50 (HLA-B*08:01 [2]; [16]) was 8.88 µM.

In the case of LLLLISLVY, the Kd (HLA-A*01:01; [17]) is reported as no less than 20 µM, the Kd (HLA-A*02:01 [4]; [17]) is reported as no less than 20 µM and the Kd (HLA-A*11:01; [17]) is reported as no less than 20 µM. The Kd (HLA-A*26:02; source organism: Variola virus) was no less than 20 µM, the Kd (HLA-A*26:03; source organism: Variola virus) was no less than 20 µM and the Kd (HLA-A*31:01; [17]) was no less than 20 µM. For the same sequence, the Kd (HLA-A*68:02; [17]) was no less than 20 µM, the Kd (HLA-A*69:01; [17]) was no less than 20 µM and the Kd (HLA-B*07:02 [5]; [17]) was no less than 20 µM. For the same sequence, the Kd (HLA-B*08:02; source organism: Variola virus) was no less than 20 µM, the Kd (HLA-B*15:01 [6]; [17]) was no less than 20 µM and the Kd (HLA-B*15:02) was 4.57 µM. The Kd (HLA-B*27:05; [17]) was no less than 20 µM, the Kd (HLA-B*39:01; source organism: Variola virus) was no less than 20 µM and the Kd (HLA-B*46:01; [17]) was no less than 20 µM. For the same sequence, the Kd (HLA-B*48:01; [17]) was no less than 20 µM, the Kd (HLA-B*57:01; [17]) was no less than 20 µM and the Kd (HLA-B*58:01; [17]) was no less than 20 µM. For the same sequence, the Kd (HLA-B*15:17 [8]) was no less than 20 µM and the Kd (HLA-B*35:01 [9]) was no less than 20 µM.

WPVMQWLTA gave a Kd (HLA-A*02:01 [4]; [18]) of no less than 20 µM, a Kd (HLA-A*02:03; [18]) of no less than 20 µM and a Kd (HLA-A*02:11; [18]) of no less than 20 µM. For the same sequence, the Kd (HLA-A*02:12; [18]) was no less than 20 µM, the Kd (HLA-A*02:16; [18]) was no less than 20 µM and the Kd (HLA-A*02:19; [18]) was no less than 20 µM. The Kd (HLA-A*03:01; [18]) was no less than 20 µM, the Kd (HLA-A*26:01; [18]) was no less than 20 µM and the Kd (HLA-B*07:02 [5]; [18]) was 0.289 µM. The Kd (HLA-B*15:01 [6]; [18]) was 8 µM, the Kd (HLA-B*15:17 [10]; [18]) was no less than 20 µM and the Kd (HLA-B*18:01; [18]) was no less than 20 µM. The Kd (HLA-B*27:03; [18]) was no less than 20 µM, the Kd (HLA-B*35:01 [7]; [18]) was 0.024 µM and the Kd (HLA-B*46:01; [18]) was no less than 20 µM. The Kd (HLA-B*57:01; [18]) was no less than 20 µM.

Sequence REVFDYLLP has a Kd (HLA-A*01:01; [19]) of no less than 20 µM, a Kd (HLA-A*02:01 [4]; [19]) of no less than 20 µM and a Kd (HLA-A*11:01; [19]) of no less than 20 µM. For the same sequence, the Kd (HLA-A*26:02; [20]) was no less than 20 µM, the Kd (HLA-A*26:03; [20]) was no less than 20 µM and the Kd (HLA-A*31:01; [19]) was no less than 20 µM. The Kd (HLA-A*68:02; [19]) was no less than 20 µM, the Kd (HLA-A*69:01; [19]) was no less than 20 µM and the Kd (HLA-B*07:02 [5]; [19]) was no less than 20 µM. It also gave a Kd (HLA-B*08:01 [11]) of no less than 20 µM, a Kd (HLA-B*08:02; [20]) of no less than 20 µM and a Kd (HLA-B*08:03) of no less than 20 µM. For the same sequence, the Kd (HLA-B*15:09) was no less than 20 µM, the Kd (HLA-B*15:17 [10]; [19]) was no less than 20 µM and the Kd (HLA-B*18:01; [19]) was no less than 20 µM. For the same sequence, the Kd (HLA-B*27:05; [19]) was no less than 20 µM, the Kd (HLA-B*39:01; [20]) was no less than 20 µM and the Kd (HLA-B*40:01) was 0.077 µM. The Kd (HLA-B*44:02) was no less than 20 µM, the Kd (HLA-B*48:01; [19]) was no less than 20 µM and the Kd (HLA-B*57:01; [19]) was no less than 20 µM. It also gave a Kd (HLA-B*58:01; [19]) of no less than 20 µM and a Kd (HLA-A*30:01) of no less than 20 µM.

Sequence ERGVRLHPL has an IC50 (HLA-A*24:02; [13]) of 44.3 µM, an IC50 (HLA-B*07:02 [12]) of no less than 95.4 µM and an IC50 (HLA-B*08:01 [2]; [13]) of 8.92 µM.
